Assay results as given in patent EP4782465A1.

Molecular target: Human insulin receptor subtype B (human), P06213
Assay: cell-based or functional assay

B1: Fusion protein 1 (insulin analog 1 + L2 + IgG2 Fc1) (Fc fusion)
chain: FVNQHLCGEHLVEALYLVCGERGFHYGGGGGGSGGGGGIVEQCCESICSLEQLENYCGGGGGQGGGGQGGGGQGGGGGECPPCPAPPVAGPSVFLFPPKPKDTLMISRTPEVTCVVVDVSHEDPEVQFNWYVDGVEVHNAKTKPREEQFNSTFRVVSVLTVVHQDWLNGKEYKCKVSNKGLPAPIEKTISKTKGQPREPQVYTLPPSREEMTKNQVSLTCLVKGFYPSDIAVEWESNGQPENNYKTTPPMLDSDGSFFLYSKLTVDKSRWQQGNVFSCSVMHEALHNHYTQKSLSLSPG
  Human insulin receptor subtype B activity (EC50): 422 nM
